Here are results for two molecules from US6127332.

For test [1], the target named is T1, interferon receptors on Daudi cells and A549 cells (Homo sapiens (Human)) (UniProt P17181).
T1 sequence 1: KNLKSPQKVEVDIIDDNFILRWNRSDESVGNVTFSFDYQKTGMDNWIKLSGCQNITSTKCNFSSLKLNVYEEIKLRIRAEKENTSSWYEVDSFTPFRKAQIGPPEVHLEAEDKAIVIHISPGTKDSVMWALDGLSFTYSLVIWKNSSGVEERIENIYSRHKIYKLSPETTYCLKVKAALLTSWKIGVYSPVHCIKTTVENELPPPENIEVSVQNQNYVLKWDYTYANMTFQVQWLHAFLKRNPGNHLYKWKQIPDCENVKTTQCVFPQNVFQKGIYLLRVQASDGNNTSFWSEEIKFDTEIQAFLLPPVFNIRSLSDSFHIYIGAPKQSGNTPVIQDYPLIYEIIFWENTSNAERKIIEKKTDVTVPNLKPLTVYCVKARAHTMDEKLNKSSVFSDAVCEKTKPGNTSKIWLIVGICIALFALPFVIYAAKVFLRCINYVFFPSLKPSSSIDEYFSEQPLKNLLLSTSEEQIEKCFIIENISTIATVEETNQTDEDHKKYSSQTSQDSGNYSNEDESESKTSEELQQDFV
T1 sequence 2: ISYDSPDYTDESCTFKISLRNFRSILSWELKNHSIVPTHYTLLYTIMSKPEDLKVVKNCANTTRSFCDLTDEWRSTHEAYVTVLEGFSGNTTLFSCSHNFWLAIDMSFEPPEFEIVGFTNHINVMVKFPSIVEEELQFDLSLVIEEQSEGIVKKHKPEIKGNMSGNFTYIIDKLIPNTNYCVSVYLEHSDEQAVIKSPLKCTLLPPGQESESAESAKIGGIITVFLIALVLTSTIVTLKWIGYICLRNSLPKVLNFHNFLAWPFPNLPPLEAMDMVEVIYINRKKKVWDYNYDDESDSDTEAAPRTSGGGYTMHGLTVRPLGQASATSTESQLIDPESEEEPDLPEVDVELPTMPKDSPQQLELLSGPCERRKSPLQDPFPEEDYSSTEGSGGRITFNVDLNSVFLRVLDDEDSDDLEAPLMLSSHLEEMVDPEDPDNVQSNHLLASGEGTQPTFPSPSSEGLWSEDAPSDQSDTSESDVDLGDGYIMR

Test [2] addresses T1, interferon receptors on Daudi cells and A549 cells (Homo sapiens (Human)). This is another data set of the same source.

In test [1], wild type recombinant IFN-β (ligand) yielded a specific activity in the Cytopathic Effect (CPE) assay for antiviral activity (EMC virus) of 2e+08 units/mg.

B1: IFN-β(phe101) (ligand)
chain: MSYNLLGFLQRSSNFQCQKLLWQLNGRLEYCLKDRMNFDIPEEIKQLQQFQKEDAALTIYEMLQNIFAIFRQDSSSTGWNETIVENLLANVYHQINHLKTFLEEKLEKEDFTRGKLMSSLHLKRYYGRILHYLKAKEYSHCAWTIVRVEILRNFYFINRLTGYLRN
modifications: 125I label (chloramine T method) where used as the labelled ligand in the receptor binding assay; unlabelled as competitor and in the antiviral assays
As for B1, the specific activity in the Cytopathic Effect (CPE) assay for antiviral activity (EMC virus) in test [1] stood at 4.8e+08 U/mg. Moreover, the specific activity in the antiviral assay relative to recombinant wild type IFN-β in test [2] was 2.5 fold.
